Measured values published in the nanobody polyreactivity screen of Harvey et al. (2022).

Assay: yeast display, Sf9 membrane polyspecificity reagent, FACS + sequencing; frameworks hold sequencing errors
Summary of the method: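 Nanobodies came from a synthetic yeast display library in Saccharomyces cerevisiae BJ5465, induced with galactose for 36–48 hours and stained for 1 hour at 4 °C with 10% biotinylated, detergent-solubilized Sf9 membrane reagent. Cells were enriched on streptavidin microbeads and then FACS-sorted, with low and high (top ~1%) gates set on anti-HA fluorescence for expression and streptavidin fluorescence for reagent binding. Each polyreactivity label reflects the gate a clone came from. Genes were amplified by colony PCR, sequenced by MiSeq 2 × 250 and filtered by CDR length.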

| Sequence | polyreactivity (PSR sort gate) |
| --- | --- |
| QVQIVESGGGLVQAGGSLRLRCAASGSISGRNGMGWYRQAPGKERELVAAISTSGASTYYADSVKGRFTISRDNSKNTVYLQMNSLKTEDTAGYYCARLWGRRGYGYWGQGTQVTVSS | high polyreactivity |
| QVQIVESGGGLVQAGGSLRLSCAASGFIFWDYAMGWYRQAPGKERELVAAISDSGGDTYYADSVKGRFTISRDNAKNTVYLQMNSLKPEDTAVYYCAADVELWVFRGQQYDYWGQGTQVTVSS | low polyreactivity |
| QVQIVESGGGLVQAGGSLRLSCAASGFNYRGYAMGWYRQAPGKERELVASIRWNGGSTYYADSVKGRFTISRDNAKNTVYLLMNSLKPEDTAVYYCAAAYRYYGVAYGYDWGQGTQVTVSS | high polyreactivity |
| QVQIVESGGGLVQAGGSLRLSCAASGFTFYGYAMGLYRQAPGKERELVATISGRGGRTYYADSVKGLFTISRDNAKNTVYLQMNSLKPVDTAVYFCAAVSSYRYYGDYYWGQGTQVTVSS | high polyreactivity |
| QVQIVESGGGLVQAGGSLRLSCAASGFTFYYYAMGWYRQAPGKERELVAAIDTGGSTNYADSVKGRFTISRDNAKNTVYLQMNRLKPEDTSVYYCNADTPDHYGHYDYWGQGTQVTVSS | low polyreactivity |
| QVQIVESGGGLVQAGGSLRLSCAASGFTIPPYTMGWYRQAPRKEREFVATITASGGSTYYADSVKGRFTISRDNAKNTVYLQMNSLNPEDTAVYYCNADYYSLYFFAWYRTNDFWGQGTQVTVSS | low polyreactivity |
| QVQIVESGGGLVQAGGSLRLSCAASGGTFYLYAKGWYRQAPGKERELVAAITTSGGSTYYADSVKGRFTISRDHAKNTVYLQMNSLKPEDTAVYYCNKDLSSTKFDYWGQGTQVTVSS | low polyreactivity |
| QVQIVESGGGLVQAGGSLRLSCAASGITFGPYAMGWYRQAPWKERELVAAISYSGGNTYYADSVKGRFTISRDNAKNTVYLQMNSLKPEDTAVDYCARVQSLKYNYWGQGTQVTVSS | high polyreactivity |
| QVQIVESGGGLVQAGGSLRLSCAASGITFPRYAMGWYRQAPGKESELVATITSRGGSTYYADSVKGRFTISRDNAKNTVYLQMISLKPEDTAVYYFNDRHYIFWSRYDYWGQGTQVTVSS | high polyreactivity |
| QVQIVESGGGLVQAGGSLRLSCAASGITFSSYAMGWYRQAPGKERELVAAITRTGGRTYYADSVKGRFTISRDNAKNTVYLQMNSLKPEDTAVYYCAAYYIAYYYWGQGTQVTVSS | high polyreactivity |
| QVQIVESGGGLVQAGGSLRLSCAASGNNFRYNTMGWYRQAPGKERELVAVITRRGSSTYYADSVKGRCTISRDNAKNTVYLQMNRLKPEDTAVYYCAAAPYYVTLVTRRDYWGQGTQVTVSS | high polyreactivity |
| QVQIVESGGGLVQAGGSLRLSCAASGRIFRSNTMGWYRPAPGKERELVARISKRGGSTNYADSVKGRFTISRDIAKNTVYLQMNRLKPEDTAVYYCAARYYYAGYYVKYYYWGQGTQVTVSS | high polyreactivity |
| QVQIVESGGGLVQAGGSLRLSCAASGRIFYWNVMGWYRQAPGKERELVAAITRSSGGTSTYADSVKGRFTISRVNAKNTVYLQMNSLKPEDTAVYYCATRRRQAKSGRAYDYWGQGTQVTVSS | high polyreactivity |
| QVQIVESGGGLVQAGGSLRLSCAASGRTFAGNAMGWYRQAPGKERELVAGISSGGSTNNADSVKGRFTISRDNAKNTVYLQMNSLNPEDTAVYYCAKRYFRKGYPLFHYAYGYWGQGTQVTVSS | high polyreactivity |
| QVQIVESGGGLVQAGGSLRLSCAASGRTFIGNVMGWYRQAPGKERELVAAISKSGTRTYYADSVKGRFTISRDNAKNTFYLQMNSLKPEDTAVYYCAKDHYPRTDDFGYWGQGTQVTVSS | high polyreactivity |
| QVQIVESGGGLVQAGGSLRLSCAASGRTFKYYAMGWYRPAPGKERELVAAISYSGGSTYYADSVKGRFTISRDNAKNTVYLQMNSLKPEDTAVYYCAARFTRYYSGCDQKYDYWGQGTQVTVSS | high polyreactivity |
| QVQIVESGGGLVQAGGSLRLSCAASGRTFPYYVMGWYRHAPGKERELVATISSSGRTYYADSVKGRFTISRDNAKNTVYLQMNSLKPEDTAVYYCAARFRWNQNYHFYYWGQGTQVTVSS | high polyreactivity |
| QVQIVESGGGLVQAGGSLRLSCAASGRTLYGYAMGWYRQAPGKEREMVASIRSGGSTNYADSVKGRFTISRDNAKNTVYLQMNCLKPEDTAVYYCADDPYYSYGYYHAHGRDVGYWGQGTQVTVSS | low polyreactivity |
| QVQIVESGGGLVQAGGSLRLSCAASGSIFGTYAMGWYRQAPGKERELVAAITRRGGSTFYADSVKGRFTISRDNAKNTVYLQMNSLKPEDTAVYDCAAPPYYWGQGTQVTVSS | high polyreactivity |
| QVQIVESGGGLVQAGGSLRLSCAASGSIFPRMAMGWYIQAPGKERELVAAITTGGITNYADSVKGRFTISRDHAKNTVYLQMNSLNPDDTAVYYCAATSWRYQQSTRYKGRRYYSWGQGTQVTVSS | high polyreactivity |
| QVQIVESGGGLVQAGGSLRLSCAASGSIFRYYALGWYRQAPGKERELVAAISSGTITNYADSVKGRFTISRDNAKNTVYLQMNSLKPEDTAVYYCAADTWYLGYPDYWLDYWGQGTQVTVSS | low polyreactivity |
| QVQIVESGGGLVQAGGSLRLSCAASGSIFSYYAMGWYRQAPGKERELVAGITGGGSTDYADSVKGRFTISRDNAKITVYLQMISLKPEDTAVYYCSTDGKPSFYSFDYCGQGTQVTVSS | low polyreactivity |

| Sequence | polyreactivity (PSR sort gate) |
| --- | --- |
| QVQIVESGGGLVQAGGSLRLSCAASGSIFTYNAMGWYRQAPGKERELVAAISYSGVRTYYADSVKGRFTISRDNAKNTVYLQMNSLKPEDTAVYYCNTRYPYSVLKYGYWGQGTQVTVSS | high polyreactivity |
| QVQIVESGGGLVQAGGSLRLSCAASGSIFYYYAMGWYRQAPGKERELVAAITRSGGSTYYADSVKGRFTISRDNEKNTVYLQMNSLKPEDTAVYYCAKDAHAYRDLDYWGQGTQVTVSS | low polyreactivity |
| QVQIVESGGGLVQAGGSLRLSCAASGSIIYRNAMGWYRQAPGKERELVAAIRTSSGSTYYAVSVKGRFTISRDNAKNTVYLQMNSLKPVDTAVYYCGAPRLYGYYSCGQGTQVTVSS | low polyreactivity |
| QVQIVESGGGLVQAGGSLRLSCAASGSILIPYAMGWYRQAPGKERELVAAISRTTRTYYADSVKGRFTISRDNAKNTVYLQMNCLKPEDTAVYYCAADRVYPYFRYGFWGQGTKVTVSS | high polyreactivity |
| QVQIVESGGGLVQAGGSLRLSCAASGSTFEVNAMGWYRQAPGKERELVAVITSGGSTNYADSVKGPFTISRDNAKNTVYLQMNSLKPEDTAVYYCAKDSRTLEDYWGQGTQVTVSS | low polyreactivity |
| QVQIVESGGGLVQAGGSLRLSCAASGSTFGSNAMGWYRQAPGKERELGAAISWTGGSTYYADSVKGRFTISRDNAKNTVYLQLNSLKPEDTAVYYCNKRIAESDTTVTYDYWGQGTQVNVSS | low polyreactivity |
| QVQIVESGGGLVQAGGSLRLSCAASGSTFNYNAMGWYRQAPGKERELVAAITFTGGSTYADSVKGRFTISRDNAKNTVYLQMNSLKPEDTAVYYCAATIQGHDYLGTGYDYWGQGTQVTVSS | low polyreactivity |
| QVQIVESGGGLVQAGGSLRLSCAASGSTFQCYAMGWYRQAPGKERQLVAAINKSGGTTYYADSVKGRFTISRDNAKNTVYLQMNSLNPEDTAVYSCATDNPVVYQPCNMDYWGQGTQVTVSS | low polyreactivity |
| QVQIVESGGGLVQAGGSLRLSCAASGSTFVVYAMGWYRQAPGKERELVAAISYRAGITYYADSVKGRFTISRDNAKNTVYLQMNSLKPEDTAVYYCAADRYYGVGSGYWGQGTQVTVSS | high polyreactivity |
| QVQIVESGGGLVQAGGSLRLSCAAYGSIFQPYAMGWYRQAPGKERELVAAITNGGSTYYADSVKGRFTISRDNAKNTVYLQMNSLKPEDTGVYYCAADVQSSHEYDYWGKGTQVTVSS | low polyreactivity |
| QVQIVESGGGLVQAGGSLRLSCAAYGSIFRLYAMGWYRQAPGKERDFVARIRWRGGSTNYPDSVKASFTISRDNAKNTVFVQMNSQKTVDTAVYYCAAKQGTVRAHTFVPWYDYWGQGTQVSVSS | high polyreactivity |
| QVQIVESGGGLVQAGGSLRLSCADSGGTFRRYAMGWYRQAPGKEREFVARIYDGGTTYYADSVKGRFTISRDNAKNTVYLQMNSLKPEDTAVYYCAAYPYSRYYYYSNYYWGQGTQVTVSS | high polyreactivity |
| QVQIVESGGGLVQAGGSLRLSCDASGSTFVRYAMGWYRQAHGKERELVAAISYRGGSTYYADSVKGRFTISRDNAKNTVYLQMNSLKPEDTAVYYCAAESRHVEGEYWGQGTQVTVSS | high polyreactivity |
| QVQIVESGGGLVQAGGSLRLSCSASGRIFVGNAMGWYRQAPGKERELVAAISQRGGSTYYADSVKGRFTISRDYAKNTVYFQMNSRKQDVTAVYSCNAACRRAATSIWSWYDHWGQGTQETVSS | low polyreactivity |
| QVQIVESGGGLVQAGGSLRLSFAASGSIFSYNSMGWYRQAPGRERELVAAITPGCTSYYADSVKGLFRISRDNAKNTVYIQMNSLTPEDTAVYYCAADGLSRDTLYPYDYWGQGSQVTVSS | low polyreactivity |
| QVQIVESGGGLVQAGGSLSLSCAASGYNFYSYAMGWYRQAPGTKRELVAAITNSGGSTYYADSVKGRFTISRDNAKNTVYLQMNSLKPEDTAVYSCNASYWRAYSYKYDYWGQGTQVTVSS | high polyreactivity |
| QVQIVESGGGLVQAGGSRRLSCAASGIIFYVNVMGWYRQAPGKERELVASNDGSGDTTYYADSVKGRFTISRDNAKNTVYLQMNSLKPEDTAVYYCAADKYSFWSYYPDDDYIYDYWGQGNQVTVSS | low polyreactivity |
| QVQIVESGGGLVQEGGSLRISCAASGIIFRRYAMGWYRQAPGKERELVATITRSGSTNYAESVKGRFTISRDNAKNSVYLQMNSLKPEDTAVYYCNADDIRGGVGYDYWGQGTQVTVSS | high polyreactivity |
| QVQIVESGGGLVQEGGSLRLSCAASGFIFRRNAMGWYRQAPGKERELVAAISSRGGTTHYADSVKGRFTISRDNAKNTVYLQMNSLKPEDSSVYYCATTPQRGGLGGVDYWGQGTQVTVSS | high polyreactivity |
| QVQIVESGGGVVQAGGSLRLSCAASGYILDRNSMGWYRQAPGKERELVAVISWGGTRTYYADSVKGRFTISRDNAKNTVSLQMNSLKPVDTAVYYCNGKGWYYKYDYWGQGTQVTVSS | high polyreactivity |
| QVQIVESGGRLVQAGGSLRLSCAASGNIFRYNAMGWYRQAPGKERELVAAITLSGGDTYYADSVKGRFTISRDNAKNIVYLQMNSLKPEDTAVYYCAKDPRSDYTDGMNYWGQGTQLTVSS | low polyreactivity |
